Laboratory results taken from IntAct's records for PubMed 15694340.

B1: Phorbol-12-myristate-13-acetate-induced protein 1 (Homo sapiens), Q13794 (parent)
chain: MPGKKARKNAQPSPARAPAELEVECATQLRRFGDKLNFRQKLLNLISKLFCSGT
B2: Bcl-2-like protein 11 (Mus musculus), O54918 (parent)
chain: MAKQPSDVSSECDREGGQLQPAERPPQLRPGAPTSLQTEPQGNPDGEGDRCPHGSPQGPLAPPASPGPFATRSPLFIFVRRSSLLSRSSSGYFSFDTDRSPAPMSCDKSTQTPSPPCQAFNHYLSAMASIRQSQEEPEDLRPEIRIAQELRRIGDEFNETYTRRVFANDYREAEDHPQMVILQLLRFIFRLVWRRH
B3: Phorbol-12-myristate-13-acetate-induced protein 1 (Homo sapiens), Q13794 (parent)
chain: B1 chain
partner: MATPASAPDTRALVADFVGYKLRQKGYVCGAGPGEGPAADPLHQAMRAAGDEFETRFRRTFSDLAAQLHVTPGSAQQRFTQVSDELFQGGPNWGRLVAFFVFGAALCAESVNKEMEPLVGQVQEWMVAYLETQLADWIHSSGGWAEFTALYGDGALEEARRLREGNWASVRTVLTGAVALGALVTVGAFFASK

Variants of: B1
Settings: with BCL2L1, Q07817-1
Chain of BCL2L1, Q07817-1 (Q07817 whole entry): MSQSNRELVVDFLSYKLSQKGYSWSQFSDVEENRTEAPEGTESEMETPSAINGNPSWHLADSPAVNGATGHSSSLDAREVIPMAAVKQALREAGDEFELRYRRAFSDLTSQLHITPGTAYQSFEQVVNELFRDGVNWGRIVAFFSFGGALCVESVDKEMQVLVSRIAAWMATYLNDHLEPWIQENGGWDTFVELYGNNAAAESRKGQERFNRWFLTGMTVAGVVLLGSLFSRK

Question: With MPGKKARKNAQPSPARAPAELEVECATQLRRIGDKLNFRQKLLNLISKLFCSGT [F32I] as the variant, how does the “effect of a mutation on the interaction” value read?
Answer: Its value is “increasing interaction”.

Question: How did the “effect of a mutation on the interaction” value turn out when MPGKKARKNAQPSPARAPAELEVECATQLRRFGDELNFRQKLLNLISKLFCSGT [K35E] was run?
Answer: Its value is “increasing interaction”.

Variants of: B2
Settings: with mcl1_mouse Mcl1, P97287
Chain of mcl1_mouse Mcl1, P97287 (P97287 whole entry): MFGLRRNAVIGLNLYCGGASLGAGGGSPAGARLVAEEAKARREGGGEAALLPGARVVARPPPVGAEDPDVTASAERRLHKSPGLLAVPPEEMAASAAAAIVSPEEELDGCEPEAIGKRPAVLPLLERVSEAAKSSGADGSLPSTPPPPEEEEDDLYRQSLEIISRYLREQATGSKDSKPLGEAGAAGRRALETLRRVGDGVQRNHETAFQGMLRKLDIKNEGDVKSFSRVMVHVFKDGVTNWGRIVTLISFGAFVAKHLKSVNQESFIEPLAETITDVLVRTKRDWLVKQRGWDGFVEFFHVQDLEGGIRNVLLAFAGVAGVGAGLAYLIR

Question: With MAKQPSDVSSECDREGGQLQPAERPPQLRPGAPTSLQTEPQGNPDGEGDRCPHGSPQGPLAPPASPGPFATRSPLFIFVRRSSLLSRSSSGYFSFDTDRSPAPMSCDKSTQTPSPPCQAFNHYLSAMASIRQSQEEPEDLRPEIRIAQEERRIGDEFNETYTRRVFANDYREAEDHPQMVILQLLRFIFRLVWRRH [L150E] as the variant, how does the “effect of a mutation on the interaction” value read?
Answer: Its value is “decreasing interaction”.

Question: How did the “effect of a mutation on the interaction” value turn out when MAKQPSDVSSECDREGGQLQPAERPPQLRPGAPTSLQTEPQGNPDGEGDRCPHGSPQGPLAPPASPGPFATRSPLFIFVRRSSLLSRSSSGYFSFDTDRSPAPMSCDKSTQTPSPPCQAFNHYLSAMASIRQSQEEPEDLRPEIREAQELRRIGDEFNETYTRRVFANDYREAEDHPQMVILQLLRFIFRLVWRRH [I146E] was run?
Answer: The value was “decreasing interaction”.

Question: For MAKQPSDVSSECDREGGQLQPAERPPQLRPGAPTSLQTEPQGNPDGEGDRCPHGSPQGPLAPPASPGPFATRSPLFIFVRRSSLLSRSSSGYFSFDTDRSPAPMSCDKSTQTPSPPCQAFNHYLSAMASIRQSQEEPEDLRPEIRIAQELRRIGDEENETYTRRVFANDYREAEDHPQMVILQLLRFIFRLVWRRH [F157E], which “effect of a mutation on the interaction” value is on record?
Answer: Its value is “decreasing interaction”.

Question: MAKQPSDVSSECDREGGQLQPAERPPQLRPGAPTSLQTEPQGNPDGEGDRCPHGSPQGPLAPPASPGPFATRSPLFIFVRRSSLLSRSSSGYFSFDTDRSPAPMSCDKSTQTPSPPCQAFNHYLSAMASIRQSQEEPEDLRPEIRIAQELRREGDEFNETYTRRVFANDYREAEDHPQMVILQLLRFIFRLVWRRH [I153E] was tested. Which “effect of a mutation on the interaction” value did it give?
Answer: Its value is “decreasing interaction”.

Variants of: B3
Settings: with BCL2L2, Q92843

Question: With MPGKKARKNAQPSPARAPAELEVECATQLRRFGDELNFRQKLLNLISKLFCSGT [K35E] as the variant, how does the “effect of a mutation on the interaction” value read?
Answer: The value was “increasing interaction”.

Question: How did the “effect of a mutation on the interaction” value turn out when MPGKKARKNAQPSPARAPAELEVECATQLRRIGDKLNFRQKLLNLISKLFCSGT [F32I] was run?
Answer: The value was “increasing interaction”.
